Values quoted from earlier work, collected in paper PMC6535718 (Journal of the American Chemical Society, 2019).

Biological target: BfrB
Settings: read-out: Kd of Bfd binding to BfrB; complex in solution

B1: Bfd: bacterioferritin-associated ferredoxin, cognate partner of BfrB in P. aeruginosa (protein, UniProt Q9HY80 1-73, looked up)
Bacterioferritin-associated …: MYVCLCQGVTDNQIRDAIYEGCCSYREVREATGVGTQCGKCACLAKQVVRETLNDLQSAQPVPAFGTTAFVAA
In the case of B1, the Kd is given as roughly 3000 nM.
